Measurements from patent US20230340555A1, “PRODUCTION OF GLYCOSYLATED CANNABINOIDS” (WILLOW BIOSCIENCES, INC., priority 2020, published 2023).

B1: AtUGT85A3: UDP-glycosyl transferase from Arabidopsis thaliana, amino acid sequence SEQ ID NO: 22 (protein, listed as Arabidopsis thaliana)
chain: MGSRFVSNEQKPHVVCVPYPAQGHINPMMKVAKLLHVKGFHVTFVNTVYNHNRLLRSRGANALDGLPSFQFESIPDGLPETGVDATQDIPALSESTTKNCLVPFKKLLQRIVTREDVPPVSCIVSDGSMSFTLDVAEELGVPEIHFWTTSACGFMAYLHFYLFIEKGLCPVKDASCLTKEYLDTVIDWIPSMNNVKLKDIPSFIRTTNPNDIMLNFVVREACRTKRASAIILNTFDDLEHDIIQSMQSILPPVYPIGPLHLLVNREIEEDSEIGRMGSNLWKEETECLGWLNTKSRNSVVYVNFGSITIMTTAQLLEFAWGLAATGKEFLWVMRPDSVAGEEAVIPKEFLAETADRRMLTSWCPQEKVLSHPAVGGFLTHCGWNSTLESLSCGVPMVCWPFFAEQQTNCKFSCDEWEVGIEIGGDVKRGEVEAVVRELMDGEKGKKMREKAVEWRRLAEKATKLPCGSSVINFETIVNKVLLGKIPNT
B2: CsUGT71 D1-DN48028: UDP-glycosyl transferase from Cannabis sativa, amino acid sequence SEQ ID NO: 40 (protein, listed as Cannabis sativa)
chain: MARVELVFIPAPAIGHLVSTLEFAKRLIHYDHRLFITVLCEFSLKSHLDAYIDSLVASLSLAHRIKLVHLPLVDSPPVELLKSIENFIYQYMESLVPHVRKALTDIVSSNSNYSQGDVVLVLDFFCMPMMDVANELGLPSYMFMTSNLGLLSLMFYLATRHNQISSELEESDAPLRLQGFQNPVPSSVLPTAAFCKDGGYSAYVKLAQRFRETKGIIVNSFEELESYSFSSMNDGAETPPIYMVGPVLDLNGQPHPSMDQVQNDKILKWLDEQPHSSVVFLCFGSMGKFGASQLREIASGLQRSGHRFLWSVRVQQPTTIDEILPEGFLEQIGSKGMICNEWAPQVKILAHSAVGGFLSHCGWNSILESLWYGVPVATWPIYAEQQLNAFRMVREFGLAVDLRLDYKDRGDDHIVSAEEIETAVKHLMEGDKEVRKKVKEMSETARKSVEEGGSSFTAIGKLINSIIGSNYY
B3: AtUGT76B1: UDP-glycosyl transferase from Arabidopsis thaliana, amino acid sequence SEQ ID NO: 28 (protein, listed as Arabidopsis thaliana)
chain: METRETKPVIFLFPFPLQGHLNPMFQLANIFFNRGFSITVIHTEFNSPNSSNFPHFTFVSIPDSLSEPESYPDVIEILHDLNSKCVAPFGDCLKKLISEEPTAACVIVDALWYFTHDLTEKFNFPRIVLRTVNLSAFVAFSKFHVLREKGYLSLQETKADSPVPELPYLRMKDLPWFQTEDPRSGDKLQIGVMKSLKSSSGIIFNAIEDLETDQLDEARIEFPVPLFCIGPFHRYVSASSSSLLAHDMTCLSWLDKQATNSVIYASLGSIASIDESEFLEIAWGLRNSNQPFLWVVRPGLIHGKEWIEILPKGFIENLEGRGKIVKWAPQPEVLAHRATGGFLTHCGWNSTLEGICEAIPMICRPSFGDQRVNARYINDVWKIGLHLENKVERLVIENAVRTLMTSSEGEEIRKRIMPMKETVEQCLKLGGSSFRNLENLIAYILSF
B4: CsUGT75D1-DN11028: UDP-glycosyl transferase from Cannabis sativa, amino acid sequence SEQ ID NO: 38 (protein, listed as Cannabis sativa)
chain: MKRTLLFIPSPGIGHLVSMLEFAKRLIQYDDRLFITILSMKFPNHDAYINSLVPSLSQSRVKLAHLPQVDPPPPKLLNSPESYIYVYVESLVPHVRDALKHIVPSHSNSETTHSQGCFVMVLDFFCMPMMDVANELGLPSYMFMPSNIGFLSSMLYLATRHDQISSELKESNPDEYSLKSFHNPVPWSALPQAYFCKDGGYSACVKMAQRFRETKGIIVNSFEGLEAHGATSFNDGETPPIYMVGPVVNFKGQPHSSTDHVQNNRIFKWLDEQPQSSVVFLCFASLGTFDASQLREIASGLECSGHRFLWCIRVQQPTIIDEILPEGFLERIGSKGMICNEWTPQVEVLAHNAVGGFVSHCGWNSILESLWYGVPIVTWPVYAEQQLNAFQMVREFDLAIELRLDYRNRGHNQLVTAEEIGNAIKKLMEGDHNVVMRKKGASGISSMVLSRFYTCKENVVLRQDPRWFAIKAGGEEK
B5: AtUGT73B1: UDP-glycosyl transferase from Arabidopsis thaliana, amino acid sequence SEQ ID NO: 24 (protein, listed as Arabidopsis thaliana)
chain: MGVFGSNESSSMSIVMYPWLAFGHMTPFLHLSNKLAEKGHKIVFLLPKKALNQLEPLNLYPNLITFHTISIPQVKGLPPGAETNSDVPFFLTHLLAVAMDQTRPEVETIFRTIKPDLVFYDSAHWIPEIAKPIGAKTVCFNIVSAASIALSLVPSAEREVIDGKEMSGEELAKTPLGYPSSKVVLRPHEAKSLSFVWRKHEAIGSFFDGKVTAMRNCDAIAIRTCRETEGKFCDYISRQYSKPVYLTGPVLPGSQPNQPSLDPQWAEWLAKFNHGSVVFCAFGSQPVVNKIDQFQELCLGLESTGFPFLVAIKPPSGVSTVEEALPEGFKERVQGRGVVFGGWIQQPLVLNHPSVGCFVSHCGFGSMWESLMSDCQIVLVPQHGEQILNARLMTEEMEVAVEVEREKKGWFSRQSLENAVKSVMEEGSEIGEKVRKNHDKWRCVLTDSGFSDGYIDKFEQNLIELVKS
B6: AtUGT76D1: UDP-glycosyl transferase from Arabidopsis thaliana, amino acid sequence SEQ ID NO: 30 (protein, listed as Arabidopsis thaliana)
chain: MAEIRQRRVLMVPAPFQGHLPSMMNLASYLSSQGFSITIVRNEFNFKDISHNFPGIKFFTIKDGLSESDVKSLGLLEFVLELNSVCEPLLKEFLTNHDDVVDFIIYDEFVYFPRRVAEDMNLPKMVFSPSSAATSISRCVLMENQSNGLLPPQDARSQLEETVPEFHPFRFKDLPFTAYGSMERLMILYENVSNRASSSGIIHNSSDCLENSFITTAQEKWGVPVYPVGPLHMTNSAMSCPSLFEEERNCLEWLEKQETSSVIYISMGSLAMTQDIEAVEMAMGFVQSNQPFLWVIRPGSINGQESLDFLPEQFNQTVTDGRGFVVKWAPQKEVLRHRAVGGFWNHGGWNSCLESISSGVPMICRPYSGDQRVNTRLMSHVWQTAYEIEGELERGAVEMAVRRLIVDQEGQEMRMRATILKEEVEASVTTEGSSHNSLNNLVHAIMMQIDEQ
B7: At5g65550: UDP-glycosyl transferase from Arabidopsis thaliana, amino acid sequence SEQ ID NO: 26 (protein, listed as Arabidopsis thaliana)
chain: MAEPKPKLHVAVFPWLALGHMIPYLQLSKLIARKGHTVSFISTARNISRLPNISSDLSVNFVSLPLSQTVDHLPENAEATTDVPETHIAYLKKAFDGLSEAFTEFLEASKPNWIVYDILHHWVPPIAEKLGVRRAIFCTFNAASIIIIGGPASVMIQGHDPRKTAEDLIVPPPWVPFETNIVYRLFEAKRIMEYPTAGVTGVELNDNCRLGLAYVGSEVIVIRSCMELEPEWIQLLSKLQGKPVIPIGLLPATPMDDADDEGTWLDIREWLDRHQAKSVVYVALGTEVTISNEEIQGLAHGLELCRLPFFWTLRKRTRASMLLPDGFKERVKERGVIWTEWVPQTKILSHGSVGGFVTHCGWGSAVEGLSFGVPLIMFPCNLDQPLVARLLSGMNIGLEIPRNERDGLFTSASVAETIRHVVVEEEGKIYRNNAASQQKKIFGNKRLQDQYADGFIEFLENPIAGV

Tested on: CN3 yeast strain host cells
Assay: Detection of glycosylated cannabinoids and cannabinoid precursors in yeast cells expressing UDP-glycosyl transferase (HPLC-MS)
Type: cell-based
Conditions: pellet or supernatant of recombinant yeast host cells transformed with the UGT
Excerpt: CN3 yeast strain host cells were transformed as described in Example 1 with one of the following heterologous UGT genes: (1) AtUGT73C6, (2) AtUGT73B4, (3) AtUGT71 D1, (4) AtUGT76E12, (5) AtUGT88A1, (6) HaUGT76G1-L, (7) At5g49690, (8) AtUGT76C4, (9) CsUGT73C6, (10) SrUGT76C1, (11) AtUGT85A3, (12) AtUGT73B1, (13) Atg65550, (14) AtUGT76B1, (15) ATUGT76B1, (16) CsUGT75B2, (17) CsUGT73B4, (18) CsUGT73B1, (19) CsUGT75D1-DN11028, and (20) CsUGT71D1-DN48028. The transformed host cells were pre-grown overnight in yeast extract peptone dextrose (YPD) growth medium and then back diluted into yeast extract peptone galactose (YPG) to OD600 = 0.2. […] Strains were incubated for 20 h at 28° C. rotating at 600 RPM in an EPOCH|2 microplate reader (BioTek). Subsequently, samples were treated with an extraction solvent (80 % Acetonitrile, 20 % Methanol) for 1 hour rotating at 100 RPM. After 20 minutes centrifugation at 12,000 RPM, the supernatant was filtered with a basix 13 mm syringe filter (0.22 µm pore size, Nylon membrane) and transferred to a new tube for further analysis.
Glycosylated cannabinoid compounds and glycosylated cannabinoid precursor compounds were assayed in the supernatant and the cellular pellet employing HPLC and HPLC-MS analysis. HPLC and HPLC-MS analysis was carried out as described below to detect the following glycosylated cannabinoid and cannabinoid precursor compounds: CBGA monoglucoside, CBGA diglucoside, CBDA monoglucoside, CBDA diglucoside, CBGA glucuronic acid, CBD monoglucoside, CBD diglucoside, olivetolic acid monoglucoside (“OliAcid monoglucoside”), olivetolic acid diglucoside (“OliAcid diglucoside”).
HPLC analysis was carried out on an Agilent Technologies 1290 Infinity system, consisting of a vacuum degasser, a binary pump, a thermostated autosampler, a thermostated column compartment and a diode array detector (DAD). A Zorbax Eclipse Plus EC-18 column (2.1 × 50 mm, 1.8 µm, Agilent, USA) was used with a mobile phase composed of 0.1% formic acid in both (A) water with 0.2 % Formic Acid and (B) Acetonitrile with 0.2 % Formic Acid. The chromatographic conditions were set as follows: 0.0-8.0 min linear gradient from 5 to 95% B; 8.1-9.09 min […], 9.10-11.0 min 5 to 95% A for equilibration of the column with the initial conditions. The flow rate was set at 0.4 ml/min. The column temperature was set at 40° C. The sample injection volume was 5 µL. The UV/DAD acquisitions were carried out in the range 190-400 nm and chromatograms were acquired at 265 and 350 nm.
HPLC-MS analysis was carried out to confirm the identity of the HPLC peaks using an Agilent Technologies 6530 Accurate-Mass quadrupole time of flight (QToF) mass spectrometer operating in negative ionization (ESI -) mode. The mass spectrometer experimental parameters were set as follows: the capillary voltage was 3.5 kV, the nebulizer (N2) pressure was 35 psi, the drying gas temperature was 350° C., the drying gas flow was 11 L/min and the skimmer voltage was 65 V. Data were acquired by Agilent Mass Hunter software. The mass spectrometer was operated in full-scan mode in the m/z range 50-1100. Extracted ion chromatograms (EICs) were obtained with an accuracy of 10 ppm m/z from total ion chromatogram (TIC) employing the m/z corresponding to the molecular ions [M-H]^- 385.1504 for Olivetolic Acid Mono-Glucoside, 547.2032 for Olivetolic Acid di-Glucoside, 521.2756 for CBGA Mono-Glucoside, 683.3284 for CBGA Di-Glucoside, 535.2549 for CBGA Glucuronic Acid, 519.2600 for CBDA Mono-Glucoside, 475.2701 for CBD Mono-Glucoside, 637.3302 for CBD Di-Glucoside.
The glycosylated cannabinoid compounds and glycosylated cannabinoid precursor compounds were detected in a relative and semi-quantitative fashion. […]

Molecule | production of glycosylated cannabinoids or cannabinoid precursor compounds
B1 | No production
B2 | No production
B3 | No production
B4 | No production
B5 | No production
B6 | No production
B7 | No production
